Assay results: patent US20260250378A1
Each block holds one substance with its values, some of them ahead of it.

Experiments:
[1] = biological target: CNX-his antigen (Genscript) (human) (UniProt P27824); assay: ELISA with serial dilutions of the antibody on coated His-tagged human CNX
[2] = biological target: CNX-mcherry fluorescent protein expressed in Huh7 cells; assay: immunofluorescence, Huh7 CNX-mcherry cells minus plain Huh7 cells, Alexa-coupled secondary
[3] = biological target: Recombinant human CANX protein fused with the Fc region of human IgG1 at the C-terminus (HuCANX_hFc) (human) (UniProt P27824); assay: ELISA, IgG1 coated 2 ug/ml, biotinylated antigen titrated (EC50 is of the antigen), streptavidin-HRP; curve is flat, value lies beyond the range shown
[4] = biological target: CNX-mcherry fluorescent protein expressed in Huh7 cells; assay: immunofluorescence, Huh7 CNX-mcherry cells minus plain Huh7 cells, anti-human Alexa 647

Chain of CNX-mcherry fluorescent protein expressed in Huh7 cells (P27824 21-592): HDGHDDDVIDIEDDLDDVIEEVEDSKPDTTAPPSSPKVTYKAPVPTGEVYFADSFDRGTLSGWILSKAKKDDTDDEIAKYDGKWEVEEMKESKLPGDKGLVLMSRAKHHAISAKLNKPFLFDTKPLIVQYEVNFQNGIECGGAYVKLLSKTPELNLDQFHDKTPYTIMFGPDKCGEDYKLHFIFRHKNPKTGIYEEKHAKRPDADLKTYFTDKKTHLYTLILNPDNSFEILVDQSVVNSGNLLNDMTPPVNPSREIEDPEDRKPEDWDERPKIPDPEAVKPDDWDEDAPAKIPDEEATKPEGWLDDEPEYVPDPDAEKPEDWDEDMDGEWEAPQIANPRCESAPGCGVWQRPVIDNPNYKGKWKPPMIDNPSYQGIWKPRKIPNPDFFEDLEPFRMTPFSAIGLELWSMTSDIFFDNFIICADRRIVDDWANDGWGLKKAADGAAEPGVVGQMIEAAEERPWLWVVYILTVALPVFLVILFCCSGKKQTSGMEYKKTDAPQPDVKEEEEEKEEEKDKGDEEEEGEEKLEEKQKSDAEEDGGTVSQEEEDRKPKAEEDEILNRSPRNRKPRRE
Chain of Recombinant human CANX protein fused with the Fc region of human IgG1 at the C-terminus (HuCANX_hFc) (human) (P27824 21-481 limits assumed): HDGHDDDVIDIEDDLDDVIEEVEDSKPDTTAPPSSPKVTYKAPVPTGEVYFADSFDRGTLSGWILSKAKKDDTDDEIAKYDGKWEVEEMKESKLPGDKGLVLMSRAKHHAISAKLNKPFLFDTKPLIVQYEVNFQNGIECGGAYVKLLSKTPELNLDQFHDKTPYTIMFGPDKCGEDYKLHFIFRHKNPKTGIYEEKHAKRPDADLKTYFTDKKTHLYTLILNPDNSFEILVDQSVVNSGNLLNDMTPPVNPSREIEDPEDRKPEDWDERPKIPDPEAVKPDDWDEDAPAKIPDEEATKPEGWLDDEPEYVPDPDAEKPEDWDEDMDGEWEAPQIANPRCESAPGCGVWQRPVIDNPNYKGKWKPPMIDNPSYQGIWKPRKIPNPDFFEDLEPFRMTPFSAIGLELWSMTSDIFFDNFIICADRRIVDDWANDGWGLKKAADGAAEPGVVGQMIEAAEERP
Chain of CNX-his antigen (Genscript) (human) (P27824 21-481 limits assumed): as above

EC50 (read off the curve) [1]: 0.2 µg/mL
Substance: CNX ab10286 (Abcam) (antibody)

Intensity (CNX+ cells - CNX -ve) [2]: 3630
Substance: CNX antibody ab22595 (Abcam)

EC50 [3]: 147 nM
Substance: Neg Control (antibody)

Intensity (CNX+ cells - CNX -ve) [4]: 107
Substance: negative control human IgG (antibody)
